This is an account of results in the DeepSol protein solubility set.

The nature of this data set: soluble on expression in E. coli; label from the status in PepcDB or PDB records.
On to “MKATLHPYQEYSKNFILDHPYCALMLDMGLGKTLSSLTAIDELLHTFEIIENVLVIAPLSVAEKTWTDEIEKWDHLQHLTFSKVLGNPKQREEALFKKADVYLINRENVEWLVNYYQRNWPFKTVIIDELSSFKSSSAKRFKALRKVRPKMERVIGLTGTPSPNSLMDLWAQMYLLDQGERLGKTITQYRNKYFVPAQKNGHIVYSWQLIPGAEEAIYNKISDICVSMKAKDYLRLPPRTENIIELDLNPTSWKQYKELEREYVLELEGTDVVASNAATLSNKLLQLSNGAVYDENGDGREIHQEKLNALERVIEDAQGQSVLVFYQYQHDLERIQARFKQAKALNVSDGDIEKWNEGKISLLLAHPQSAGHGLNLQKGGHIIVWFGLTWSLEFYQQANARLDRQGQTQPVIIHHLVTKGTIDEQVIKALQAKEQGQSALMAAVKAKIEEYRGDKLG”, for which the “soluble on expression in E. coli” value is on record as “not soluble”.

For “SLQKLQAQGVHHITLVGAGRQTSIDFWEGVLGMPFIFEQPNLDKASESHLYFDPGDGRLITVFTDESRTPQKRRTPTDPGCVHHIAFAVSRVTFLQAVARLDERGIKHSGVKDRGFMDSIYFEDPLGLLIELASYRFEPPAGFTHADVLMQAHRLRVGRGDYNIAEVHLADAIQVLVESSREG”, the “soluble on expression in E. coli” value was “soluble”. The same measure for “MTQLNQRRRGNRLENAIYDTTYTLLSQYGLDQVTFSRVATAAATSRSVLYRYWDSTFDLIFHTIIHQIQKTPIALTTTPLDTGSLRTDLILLAQRFIQQTSTGPFRYFRLLFATALNAQNQRDLTQLVTQIDHANLTLIEPLLTNAQNHGELQIWPNQAAQLVLFQQLRYCDIINQPMNTDQQLTNLIDQVVLPALRASGVANRHFHH”: “not soluble”; for “MSLARIKDVAELAGVNRSTVSRIINGEGKFREETRKKVEQAMAQLNYRPSAIARSLATSSSNMVGLLVTYYTGGFFGEMMEQVQTELDIHKKFLITAQGHHSAEGEKEAIQRFNDLRCDGYVLHSRYLSDDDLRELAKLPTPFVLLDRYVEGIEERCITFNHHHASRIAVEHLIAGGHKNIACITGPSLRHNSLLRKLGYVDAMKTAGIDIDESWCEEGNYGRQSGYDAMASILKRHPEVTAVFSCSEEMTVGAMQYLHEHKISVPEQISLTSFDSVDLCESLYPTVSAVHFPISDMARAAVQTLMGLVKKQEHIEKPVFEAKLKLRHADREGHHHHHH”: “soluble”.

As to “MDVIRSSASDILGALRSRQLSSEAVMEATLARIAAVNPELNAIVALRPTDELLAEARAADAVAPEARGALHGLPIAVKDLVETAGIVSSHGSPLFRDHVPERDDLIAARIRAAGAILIGKTNVPEFGLGSHTFNPVYGATGNPYAPNLTCGGSSGGAAVALATGMTALADGSDMMGSLRNPAAWCNVYGFRPSWGRVPSEPLGDTFLHQLATLGPMGRSPADIAILLDVISGADPRQPHGFDSAPVAPLRPAATRGLRLGWLGDWGGAFPTEPGILPLCETALKIFSDLGCTVEKVPPPFDAEALWESWITLRSWSVGAGLAPLSEKRAQLKDSAQWELDRGLALSAMEVDRASVTRSAWFMRATELFESYDALILPSAQVWPFDLDRPYPTEIAGQAMDTYHRWMQVVTPVSLIGLPSLAMPAGFGDAGLPMGVQIFGPRGGDAALLALGEAYHAATTWPQRHP”, the “soluble on expression in E. coli” value is “not soluble”. The result for “MISNFKSISLTYRKAPLEIRERVALNEAECKSLMLRIKDFTDTAELLILSTCNRTEIYYTSNEDYSNDIIKLLGVEKNITGLIQQKEYFEIYNEQADAVLHLFEVGIGLDSQVVGDMQIVNQVKYAYQWSADLNLAGPFLHRLMHTIFFTNKRVVQETAFRDGAASVSYATVELSEELLSATPNANILIVGLGEIGADVCRNFKANTSFKNITLTNRSPLKSEALAAECGIEHVPFETLWEAVAKADLVISSVAKEEPLFTKEEIQKLSILSHKYFIDLSVPRSVDARAEELPGIIVYDIDHIQNRSNEALENRLNAIPHVRKIILDSIVEFNEWSKEMEVSPTINKLKNALEQIRKEELSRFVKQLSDEEAKKVDEITKSIMQKIIKLPVLQLKAACKRGEAETLIDVLNDLFNLDKQPEQIRD” reads “not soluble”; that for “GPGSMRSAVTCIKSPGAALFTDTATCRTITLSRPDALNVMSLPMVQDLHRLYITEPHPNEDAVYVVRGDGRRSFCAGGDLKALTGPERDTHNPLFYRLEYEVDSHIAVMRRTQVAMWAGHVLGSGVGVSVHSRYRVACETTRFAMPETQIGGANDVATSWVFSSLPICGLGMYLAITGNALQGADVFHAGLATHYIPVEKFGAVEAALAALPSSEGVEECLRGFSEDVAVPPFTLAESAPVLAKAFGTITPWTRLRDIMDVLRADGSAFAASTLEVMERNSPLGMTLALENMKRQHTPGCNTVMESFRGDYTAIQTSIFADELAKGVEALFVTKEKRPQWTVESVDEVDVELVKQQFALTEGVRVSAGGKDGRACFGVFGCYRAQASPVG”, “soluble”; that for “TSALAPVAAIIPPPPDVQPVIDKLAEYVARNGLKFETSVRAKNDQRFEFLQPWHQYNAYYEFKKQFFLQKEGGDSMQAVSAPE”, “soluble”. The same measure for “DPVFLDIFKSDKEDYEQRLRGAIREELNAFWQAKQPMIGLYLGEAMVGVACINSPDETLASDRFWHWRLKMLLNAGYFSTKQMMQKEHTVLAAVPLKIFHFLSFIAVHPLHQQHGFGHYLMAAVNTVLDEHPDSEGVAVYATSGKFKEFFKQVDYHTVKEVTVGNV”: “not soluble”; for “MTENALLLLNLGSPDSTRVEDVRRYLDQFLMDPYVVDLPWPLRRLLVSLILIKRPAESAHAYSSIWWDEGSPLIVLSRRLQEAMKPHWPHGPVELAMRYGQPAIEKVLLDLARRGIRRVTLAPLYPQFADSTTTTAEQEVRRVIAAHRLGLEVSTLPPFYDQPVYLDALVESVRPYLQQPHDHLLLSFHGLPERHIRKLVKDPAHDLLAENSRNVSPEALALCYRSQCLRTAEAFAERAGLEQGRWSVSFQSRLGRAKWIEPYTDAKLDELVQRGVKRLLVMCPAFVADCIETLEEIGMRGREQFISAGGEDLVLIPCLNDHPAWVGALAEMSGRLARPL”: “not soluble”.

For the sequence “MQTELTGKLQKLGFTENEAKIYIGLLRQGEVTAREIHEFTHVPRTKIYSTLNRMSKKKYIEVIEGTPAYFRSIDPEQLLERLRDEFLFSLNETLEELNSAGYGMKNKCC”, the “soluble on expression in E. coli” value was “not soluble”. The result for “MIKKDYAQIKETLYTETLENGLKVYLLPKNDFQKTYGLFTTDYGSIDNTFVPIGQEEMIEVPDGIAHFLEHKMFEKEDGDVFQKFGQQGASANAFTSFTKTSYLFSTTDQVTQNLETLLDFVQSPYFTKETVEKEKGIIGQEIQMYLDDPNWRLFFGILGNLYPKHPLHIDIAGTVASIAEITAEDLYTCYNTFYHPSNMTLFVVGKMDPEALMAFIRENQAAKEFPAAQPIRRHFPEETAADIVKESAIEMTVTRAKVLVGLKGLDEVPTTGRDLMKYQVTVNLLLQLLFGNTSQNYLALYDEGLLDDSFSYDFNLDRSFHFADIGGDSEQPEVLAERIEAILLSATTSPELTEENLSLLKKKMIGKYFQSLNSLEYIANQFSQSLFGETTLFDKIEVIESIQLADVRQVAETFIREEGLSRFYMYPKGETEQ” reads “not soluble”. The same measure for “MGSDKIHHHHHHMTMDKLLTVCGLSLEVARTGQQVVKSVSFDLAPGEIFGIVGESGSGKTLATRALISLLPPTIKVADGSVSYKGRDVLKMKENELRHLRGAEIGVVFQEPMTSLNPSMTIGRQLEEGLILHTKASAQERRSLILDMLKRVGIRDPEGALSSYPHEFSGGMRQRIMLASVMLLKPALLIADEPTTALDAVIQRDVMELMVELTRAEGTAILLISHDLPMVARYTSRIVVMEKGAIVEKGRTEDLLKAPQHPYTKKLLSSLPFRGRPRQIDLTSVPMISARDIIVDYAGRKSLFRKNKPKRALHGVSIDIHEGEVVALVGGSGSGKTTLGRTIAGLVTESEGRIQFQGRPRTENWTDYRLNCQMVFQDPYSSLDPRMTIEALVEEALRPVPGLDGKAKRKRTLETLEEVGLGVDYAGRYPHELSGGQRQRVAIARAIARRPRFLIADEPVSALDVTVRAQVLDLFSDLQKRYGFSCLFISHDLGVVEQVADRVVVMQDGRIIEEGDRDTIFDSPKEAYTRRLLSAIPALDQNEKGGVTLKWRLEN”: “not soluble”; for “MAGDPMIRKPAVAGYFYPSNRNELLSLISSFHVQQSEVSCQPIGVVVPHAGIVYSGRTAMYSYNALRNSSIRDFIIIGPNHRPMTPYASIFPSGSWETPLGNAIINEELASELYKNSQYIVKDEESHSVEHSIEVQIPFLQYMFGNSFTFVPVILGDQEKVVANDIASALMRLSKPYILIASSDFTHYERSDIVERKDMDLISRIVDLDIDGFYDTIERENVTACGYGAIAILMIIAKKIGAKISLLNHSNSGDVTNDYDEVVGYSSIVACRQILEHHHHHH”: “not soluble”. The same measure for “MGSDKIHHHHHHMNELRNDLLRYLTISATDEEWGIVVTTVGYQFIPPGCAYPLSRHPEKYNFKPQTGRILNEYQLVYITKGSGYFSSQSCKSQKINAGTMILLFPGEWHSYYPDRETGWDEYWVGFRGIHIDKRVEKKFFTKEEPLHRIGLSATIVGLYEDILKFASEEKSGYQQMISSIVLHILGSVYYKEKNNSFTNTYVVDKINEARILMKENIEDPLSPEEIAARLGLGYSWFRRMFKEYTGVSPAQYQLQQKLLRAKELLTSTPLTISEIAYSLHFENAGQFSTFFKKKEGVTPSEFRDRTH”: “not soluble”.

As to “GAMGSSLDNPTPFPNLGPSENPLKRLLVPGEEWEFEVTAFYRGRQVFQQTISCPEGLRLVGSEVGDRTLPGWPVTLPDPGMSLTDRGVMSYVRHVLSCLGGGLALWRAGQWLWAQRLGHCHTYWAVSEELLPNSGHGPDGEVPKDKEGGVFDLGPFIVDLITFTEGSGRSPRYALWFCVGESWPQDQPWTKRLVMVKVVPTCLRALVEMARVGGASSLENTVDLHISNSHPLSLTSDQYKAYLQDLVEGMDFQGPGES”, the “soluble on expression in E. coli” value is on record as “soluble”. The result for “MDPQILSPASYGNRAPQKKKKPKKPSAELPSRHSTRSDENSGKIEPGTEHMSSGQRKNLKLLKSDERARVIDARAVLDSAQKHLATLLKNGGKGGDEDIDELIFNREAEIPVEPIRKGKCPFYFDQRILTIVGRVGEVPVQHWFAIYNTSPFPYMFKIKCSDNSLFKIHPVCGVLDALCDAEISVTFVGAHVPPRYTSYLSIHSMLPDPLFLDVPQAFRNRRNFETRQRLYVEYAYHEDPILVTAEEDRDQFHFQYMRKVLKTDEAESFAKKLKAEKVERLDKKIDEIKARKIDEKLIEREIVRAESPKFEPKTRRLRVEKFFNQQKQKKENEWMEKLKVDASRKPMLSHWDLEMKNIKAEKKKIGAVKKKIKAEKKEDKKKPMGWMSTLKMERDERRTKRKEEEEKKKKDAEEKKKKDAEEKKKKDAEDEKKKDAGDEKKKDAEDEKKKDAGDEKKKKDAGEKKKKDAEEKKKVAEEEKKS” reads “soluble”.

“MRTKDIYRLELRKIKIDKRMMKRILRLGIPSGIQQSIISLSNVVVQANVNIFGSTVMAGFGAYNKVDGFVVLPMQSFCMAATTFTGQNIGAGKPERIREG”: the “soluble on expression in E. coli” value is recorded as “not soluble”.
